Experimental data as given in patent US20260132182A1 (published 2026).
Starred links: 1 amine or outer side, 2 acyl side, 3 side chain; linkers in the order of their positions; H or OH if unused. Non-standard residues stand in square brackets, D forms with d. Groups on a side chain read outwards from the residue. *: point of attachment. C20 diacid = O=C(O)CCCCCCCCCCCCCCCCCCC(=O)*; C18 diacid = O=C(O)CCCCCCCCCCCCCCCCC(=O)*; C16 diacid = O=C(O)CCCCCCCCCCCCCCC(=O)*; γGlu = O=C(O)[C@H](CCC(=O)[*:2])N[*:1]; εLys = N[C@@H](CCCCN[*:1])C(=O)[*:2]; Trx = NC[C@H]1CC[C@H](C(=O)O)CC1; AEEA = NCCOCCOCC(=O)O; Aib = CC(C)(N)C(=O)O

T1: human amylin-3 (a) receptor (human, UniProt P30988 25-474; O60896 24-148)
T1 sequence (looked up) 1: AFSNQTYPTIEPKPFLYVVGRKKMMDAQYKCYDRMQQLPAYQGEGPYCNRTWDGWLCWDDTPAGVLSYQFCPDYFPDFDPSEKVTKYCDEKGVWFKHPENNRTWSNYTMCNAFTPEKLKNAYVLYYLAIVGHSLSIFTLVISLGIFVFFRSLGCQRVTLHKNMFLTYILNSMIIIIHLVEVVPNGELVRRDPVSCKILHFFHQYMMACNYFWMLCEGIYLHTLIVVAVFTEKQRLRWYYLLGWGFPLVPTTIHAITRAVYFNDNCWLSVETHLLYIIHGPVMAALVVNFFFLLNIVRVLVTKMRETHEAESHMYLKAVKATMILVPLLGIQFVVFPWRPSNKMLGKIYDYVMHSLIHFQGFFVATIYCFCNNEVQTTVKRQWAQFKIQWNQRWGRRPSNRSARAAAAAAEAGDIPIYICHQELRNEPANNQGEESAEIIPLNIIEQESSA
T1 sequence (looked up) 2: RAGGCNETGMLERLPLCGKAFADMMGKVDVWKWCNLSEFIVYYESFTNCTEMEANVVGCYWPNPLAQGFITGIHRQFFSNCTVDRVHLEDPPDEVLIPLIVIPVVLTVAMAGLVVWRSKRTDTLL

B1: Compound 0284 (peptide)
peptide: H[Aib]EGTFTSDVSSYLEEQAAREFIAWLVRGK([AEEA-AEEA-γGlu-C16 diacid])GGGGGEASELSTAALGRLSAELHELATLK([AEEA-AEEA-γGlu-C16 diacid])RTETGSGSP-NH2
B2: Compound 0042 (peptide)
peptide: H[Aib]EGTFTSDVSSYLEGQAAKEFIAWLVRGRK([AEEA-AEEA-γGlu-C18 diacid])GGEASELSTAALGRLSAELHELATLPRTETGSGSP-NH2
B3: Compound 0297 (peptide)
peptide: H[Aib]EGTFTSDVSSYLEEQAAREFIAWLVRK([AEEA-AEEA-γGlu-C16 diacid])RGGGGGASELSTAALGRLSK([AEEA-AEEA-γGlu-C16 diacid])ELHELATLPRTETGSGSP-NH2
B4: Compound 0397 (peptide)
peptide: H[Aib]EGTFTSDVSSYLEEK([AEEA-AEEA-γGlu-C16 diacid])AAREFIAWLVRGRGGGGGEASELSTAALGRLSAELHELATLK([AEEA-AEEA-γGlu-C16 diacid])RTETGSGSP-NH2
B5: Compound 0263 (peptide)
peptide: H[Aib]EGTFTSDVSSYLEEQAAREFIAWLVRGRK([AEEA-AEEA-γGlu-Trx-C20 diacid])EASELSTAALGRLSAELHELATLPRTETGSGSP-NH2
B6: Compound 0270 (peptide)
peptide: HWEGTFTSDVSSYLEEK([AEEA-AEEA-γGlu-Trx-C20 diacid])AAREFIEWLVRGRGEASELSTAALGRLSAELHELATLPRTETGSGSP-NH2
B7: Compound 0396 (peptide)
peptide: H[Aib]EGTFTSDVSSYLEEK([AEEA-AEEA-γGlu-C16 diacid])AAREFIAWLVRGRGGGGGEASELSTAALGRLSAELHELK([AEEA-AEEA-γGlu-C16 diacid])TLPRTETGSGSP-NH2
B8: Compound 0273 (peptide)
peptide: HWEGTFTSDK([AEEA-AEEA-γGlu-C18 diacid])SSYLEEQAAREFIEWLVRGRGEASELSTAALGRLSAELHELATLPRTETGSGSP-NH2
B9: Compound 0411 (peptide)
peptide: H[Aib]EGTFTSDVSSYLEEK([AEEA-AEEA-γGlu-C16 diacid])AAREFIAWLVRGRGGGGGEASELSTAALGRLSAELHELATLPRTETGK([AEEA-AEEA-γGlu-C16 diacid])GSP-NH2
B10: Compound 0268 (peptide)
peptide: HWEGTFTSDVSSYLEEQAAREFIAWLVRGRK([AEEA-AEEA-γGlu-Trx-C20 diacid])GGGGEASELSTAALGRLSAELHELATLPRTETGSGSP-NH2
B11: Compound 0281 (peptide)
peptide: H[Aib]EGTFTSDVSSYLEEQAAREFIAWLVRGK([AEEA-AEEA-γGlu-C16 diacid])GGGGGEASELSTAALGRLSAELHELK([AEEA-AEEA-γGlu-C16 diacid])TLPRTETGSGSP-NH2
B12: Compound 0267 (peptide)
peptide: HWEGTFTSDVSSYLEEQAAREFIEWLVRGK([AEEA-AEEA-γGlu-Trx-C20 diacid])GEASELSTAALGRLSAELHELATLPRTETGSGSP-NH2
B13: Compound 0271 (peptide)
peptide: HWEGTFTSDVSSYLEEK([AEEA-AEEA-γGlu-C18 diacid])AAREFIEWLVRGRGEASELSTAALGRLSAELHELATLPRTETGSGSP-NH2
B14: Compound 0272 (peptide)
peptide: HWEGTFTSDK([AEEA-AEEA-γGlu-Trx-C20 diacid])SSYLEEQAAREFIEWLVRGRGEASELSTAALGRLSAELHELATLPRTETGSGSP-NH2
B15: Compound 0295 (peptide)
peptide: H[Aib]EGTFTSDVSSYLEEK([AEEA-AEEA-γGlu-C16 diacid])AAREFIAWLVRGRGGGGGASELSTAALGRLSK([AEEA-AEEA-γGlu-C16 diacid])ELHELATLPRTETGSGSP-NH2
B16: Compound 0299 (peptide)
peptide: H[Aib]EGTFTSDVSSYLEEK([AEEA-AEEA-γGlu-C16 diacid])AAREFIAWLVRGRGGGGGEASELSTAALGRLSAELHK([AEEA-AEEA-γGlu-C16 diacid])LATLPRTETGSGSP-NH2
B17: Compound 0264 (peptide)
peptide: H[Aib]EGTFTSDVSSYLEEQAAREFIAWLVRGK([AEEA-AEEA-γGlu-Trx-C20 diacid])GGGGEASELSTAALGRLSAELHELATLPRTETGSGSP-NH2
B18: Compound 0296 (peptide)
peptide: H[Aib]EGTFTSDVSSYLEEQAARK([AEEA-AEEA-γGlu-C16 diacid])FIAWLVRGRGGGGGASELSTAALGRLSK([AEEA-AEEA-γGlu-C16 diacid])ELHELATLPRTETGSGSP-NH2
B19: Compound 0285 (peptide)
peptide: H[Aib]EGTFTSDVSSYLEEQAAREFIAWLVRGK([AEEA-AEEA-γGlu-C16 diacid])GGGGGEASELSTAALGRLSAELHELATLPRTETGK([AEEA-AEEA-γGlu-C16 diacid])GSP-NH2
B20: Compound 0266 (peptide)
peptide: H[Aib]EGTFTSDK([AEEA-AEEA-γGlu-Trx-C20 diacid])SSYLEEQAAREFIAWLVRGRGGGGEASELSTAALGRLSAELHELATLPRTETGSGSP-NH2
B21: Compound 0261 (peptide)
peptide: H[Aib]EGTFTSDK([AEEA-AEEA-γGlu-C16 diacid])SSYLEEQAAREFIAWLVRGRGGGGGEASELSTAALGRLSAELHELATLK([AEEA-AEEA-γGlu-C16 diacid])RTETGSGSP-NH2
B22: Compound 0269 (peptide)
peptide: HWEGTFTSDVSSYLEEQAAREFIEWLVRGRK([AEEA-AEEA-γGlu-Trx-C20 diacid])GGGGEASELSTAALGRLSAELHELATLPRTETGSGSP-NH2
B23: Compound 0292 (peptide)
peptide: H[Aib]EGTFTSDK([AEEA-AEEA-γGlu-C16 diacid])SSYLEEQAAREFIAWLVRGRGGGGGASELSTAALGRLSK([AEEA-AEEA-γGlu-C16 diacid])ELHELATLPRTETGSGSP-NH2
B24: Compound 0280 (peptide)
peptide: H[Aib]EGTFTSDVSSYLEEQAAREFIAWLVRGK([AEEA-AEEA-γGlu-C16 diacid])GGGGGEASELSTAALGRLSAELHK([AEEA-AEEA-γGlu-C16 diacid])LATLPRTETGSGSP-NH2
B25: Compound 0044 (peptide)
peptide: H[Aib]EGTFTSDVSSYLEGQAAK([εLys-AEEA-AEEA-γGlu-C18 diacid])EFIAWLVRGRGGGEASELSTAALGRLSAELHELATLPRTETGSGSP-NH2
B26: Compound 0294 (peptide)
peptide: H[Aib]EGTFTSDVSSYLEK([AEEA-AEEA-γGlu-C16 diacid])QAAREFIAWLVRGRGGGGGASELSTAALGRLSK([AEEA-AEEA-γGlu-C16 diacid])ELHELATLPRTETGSGSP-NH2
B27: Compound 0265 (peptide)
peptide: H[Aib]EGTFTSDVSSYLEEK([AEEA-AEEA-γGlu-Trx-C20 diacid])AAREFIAWLVRGRGGGGEASELSTAALGRLSAELHELATLPRTETGSGSP-NH2

What follows are binders tested against human GLP-1 receptor (human, UniProt P43220 24-463) (assay: cell-based or functional assay).

Row | Binder | Human GLP-1R potency [EC50 (pM)] [pM]
1 | B1 | 41.7
2 | B2 | 16.2
3 | B3 | 30.2
4 | B4 | 3.8
5 | B5 | 13.8
6 | B6 | 6.3
7 | B7 | 4.8
8 | B8 | 24.9
9 | B9 | 3.5
10 | B10 | 26.4
11 | B11 | 35.2
12 | B12 | 28.5
13 | B13 | 4.6
14 | B14 | 9.2
15 | B15 | 4.8
16 | B16 | 6
17 | B17 | 6.5
18 | B18 | 4
19 | B19 | 19
20 | B20 | 6.3
21 | B21 | 17.4
22 | B22 | 7.7
23 | B23 | 12
24 | B24 | 34.3
25 | B25 | 16
26 | B26 | 13.7
27 | B27 | 6

What follows are binders tested against T1, human amylin-3 (a) receptor (assay: cell-based or functional assay).

Row | Binder | Human AmyR3 potency [EC50 (pM)] [pM]
28 | B1 | 32.8
29 | B2 | 10.8
30 | B3 | 46
31 | B4 | 18.5
32 | B5 | 25.2
33 | B6 | 8.6
34 | B7 | 32.8
35 | B8 | 18
36 | B9 | 45.9
37 | B10 | 14.4
38 | B11 | 114
39 | B12 | 45.3
40 | B13 | 15.2
41 | B14 | 11.3
42 | B15 | 32.7
43 | B16 | 11.5
44 | B17 | 11.7
45 | B18 | 29.9
46 | B19 | 78.9
47 | B20 | 8.5
48 | B21 | 23.9
49 | B22 | 7.5
50 | B23 | 33.8
51 | B24 | 18
52 | B25 | 9.1
53 | B26 | 34.3
54 | B27 | 8.1
